These results are taken from PMC1952217 (The EMBO Journal, 2007).

Assay in all cases: FRET or BRET
Assay [1] has as its target T1, Smc1 tagged at its C-terminus with CFP or YFP (S. cerevisiae, UniProt P32908 1-1225).
T1 sequence: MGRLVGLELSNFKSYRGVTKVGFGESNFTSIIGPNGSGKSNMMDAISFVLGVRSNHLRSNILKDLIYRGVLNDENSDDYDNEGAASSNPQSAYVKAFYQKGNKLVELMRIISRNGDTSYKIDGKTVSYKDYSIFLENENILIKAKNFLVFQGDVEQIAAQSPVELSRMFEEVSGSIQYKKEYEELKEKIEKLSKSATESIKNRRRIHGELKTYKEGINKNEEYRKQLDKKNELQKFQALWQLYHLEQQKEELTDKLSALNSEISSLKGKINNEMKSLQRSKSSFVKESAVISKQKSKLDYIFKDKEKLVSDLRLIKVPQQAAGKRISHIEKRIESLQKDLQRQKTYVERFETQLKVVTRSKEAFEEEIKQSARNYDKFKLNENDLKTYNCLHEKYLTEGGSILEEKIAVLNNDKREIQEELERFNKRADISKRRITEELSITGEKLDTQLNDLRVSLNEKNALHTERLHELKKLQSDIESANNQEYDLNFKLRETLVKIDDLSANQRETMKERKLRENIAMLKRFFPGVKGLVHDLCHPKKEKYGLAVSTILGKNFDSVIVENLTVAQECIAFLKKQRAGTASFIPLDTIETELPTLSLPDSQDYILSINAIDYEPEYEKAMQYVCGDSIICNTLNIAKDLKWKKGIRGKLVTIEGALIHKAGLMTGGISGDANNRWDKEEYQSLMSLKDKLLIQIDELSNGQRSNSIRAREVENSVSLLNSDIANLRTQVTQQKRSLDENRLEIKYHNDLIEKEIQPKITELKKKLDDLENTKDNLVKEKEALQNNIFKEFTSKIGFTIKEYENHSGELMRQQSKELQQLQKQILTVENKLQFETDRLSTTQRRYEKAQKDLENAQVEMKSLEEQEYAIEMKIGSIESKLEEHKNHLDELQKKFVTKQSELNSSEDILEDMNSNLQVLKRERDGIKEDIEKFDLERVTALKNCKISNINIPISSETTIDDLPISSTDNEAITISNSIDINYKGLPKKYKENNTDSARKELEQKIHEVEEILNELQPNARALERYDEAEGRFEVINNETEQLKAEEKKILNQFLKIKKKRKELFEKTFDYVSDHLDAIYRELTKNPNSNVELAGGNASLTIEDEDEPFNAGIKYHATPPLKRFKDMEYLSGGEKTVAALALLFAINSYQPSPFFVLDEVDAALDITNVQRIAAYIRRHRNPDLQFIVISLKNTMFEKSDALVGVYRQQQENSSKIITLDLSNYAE

The target in assay [2] is T2, Scc1 with CFP or YFP at its C-terminus (S. cerevisiae, UniProt Q12158 1-566).
T2 sequence: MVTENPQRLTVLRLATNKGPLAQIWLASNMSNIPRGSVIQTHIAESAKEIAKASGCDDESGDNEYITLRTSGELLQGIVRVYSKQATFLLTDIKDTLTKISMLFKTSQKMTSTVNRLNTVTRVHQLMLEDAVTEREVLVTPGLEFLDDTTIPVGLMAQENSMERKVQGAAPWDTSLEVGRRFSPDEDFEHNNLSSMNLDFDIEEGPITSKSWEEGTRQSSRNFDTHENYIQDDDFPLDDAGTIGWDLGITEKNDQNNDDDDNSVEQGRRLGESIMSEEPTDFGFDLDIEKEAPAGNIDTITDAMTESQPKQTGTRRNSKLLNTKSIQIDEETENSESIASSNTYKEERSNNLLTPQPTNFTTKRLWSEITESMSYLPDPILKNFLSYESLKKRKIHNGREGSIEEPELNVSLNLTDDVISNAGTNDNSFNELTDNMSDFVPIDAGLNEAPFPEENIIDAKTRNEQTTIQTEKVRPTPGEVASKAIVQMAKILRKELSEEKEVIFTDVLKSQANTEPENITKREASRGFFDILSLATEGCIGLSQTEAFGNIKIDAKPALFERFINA

Assay [3] concerns the target T3, Smc3 tagged at its C-terminus with CFP or YFP (S. cerevisiae, UniProt P47037 1-1230).
T3 sequence: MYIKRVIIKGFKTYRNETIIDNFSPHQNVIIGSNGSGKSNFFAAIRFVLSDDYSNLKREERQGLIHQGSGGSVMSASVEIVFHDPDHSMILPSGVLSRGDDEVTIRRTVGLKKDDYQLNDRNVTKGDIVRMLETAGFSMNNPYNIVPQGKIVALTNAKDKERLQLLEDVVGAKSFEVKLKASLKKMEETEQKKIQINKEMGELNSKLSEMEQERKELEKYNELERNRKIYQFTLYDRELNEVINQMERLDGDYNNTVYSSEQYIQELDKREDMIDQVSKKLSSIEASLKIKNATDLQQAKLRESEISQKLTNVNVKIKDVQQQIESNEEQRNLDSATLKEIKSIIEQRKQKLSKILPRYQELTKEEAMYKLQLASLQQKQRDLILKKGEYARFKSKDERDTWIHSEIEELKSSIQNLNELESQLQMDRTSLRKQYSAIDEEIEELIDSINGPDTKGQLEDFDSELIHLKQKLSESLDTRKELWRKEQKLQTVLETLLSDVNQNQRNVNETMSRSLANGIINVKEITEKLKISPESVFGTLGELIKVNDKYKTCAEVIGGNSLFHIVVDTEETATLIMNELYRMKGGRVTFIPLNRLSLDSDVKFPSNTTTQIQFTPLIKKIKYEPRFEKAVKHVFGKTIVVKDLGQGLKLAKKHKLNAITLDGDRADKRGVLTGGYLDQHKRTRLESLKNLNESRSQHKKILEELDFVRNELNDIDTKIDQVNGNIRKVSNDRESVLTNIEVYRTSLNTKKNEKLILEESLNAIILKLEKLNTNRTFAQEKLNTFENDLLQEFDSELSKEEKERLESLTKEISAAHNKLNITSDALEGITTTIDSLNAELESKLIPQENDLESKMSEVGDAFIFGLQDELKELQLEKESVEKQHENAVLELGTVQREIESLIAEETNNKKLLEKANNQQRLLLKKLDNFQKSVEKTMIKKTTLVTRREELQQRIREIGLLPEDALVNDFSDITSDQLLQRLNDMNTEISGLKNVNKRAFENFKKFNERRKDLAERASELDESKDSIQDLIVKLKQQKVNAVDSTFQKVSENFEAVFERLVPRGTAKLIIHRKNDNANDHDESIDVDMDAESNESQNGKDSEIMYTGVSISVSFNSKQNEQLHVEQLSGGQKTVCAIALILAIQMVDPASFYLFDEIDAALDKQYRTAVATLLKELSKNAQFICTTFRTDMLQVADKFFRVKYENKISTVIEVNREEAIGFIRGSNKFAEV

B1: Scc3 with CFP or YFP at its C-terminus (natural protein)
chain: MTAVRRSTRIRTKSQVIEEDYDDEQNTSAQHVESDKITAKTQHEEEEEQDTGESEESSSEDDYEDQDDDDYVDTATAKRKSRKRKPKSASNTSSKRQKKKPTSAQKSAVSHAPAYHRSKKDQDQYLEIAKDFQPTELFDILSTSEDVSIEELLREWLETYSENRDKFLQEFINLLLNCCGSVARVEDHDVHSNESSNETIGEIQLLFQRQKLHEFYLLISKENKKRKNFKMGPLYQNFAEFMTKLLEVANDLQLLYVESDEDDTQIVTGNLVLDLLTWLSSFSVCKIRCFRYISTLTLYLFQDYLTQQAVNLEKNYLAKLSKQLSLEEKKKRPNNKTLEKLESTIAETQGSKVVIDSIIDNIVKLCFVHRYKDVSDLIRSESMLHLSIWIKNYPEYFLKVTFLKYFGWLLSDNSVSVRLQVTKILPHLIIQNHNSKSTDNSAIRQVFERFKTKILEVAIRDVNLDVRIHSIQVLTEASSLGYLDDSEILIISSLMFDEEFDPFKTSSFNKRSKFLSTVAKFLARVIKEKFDEFIKTHEDLPKEVDGLEVGPVVQVGIFIKILNDSLIYHLKDCAEVDSRTKIRMLTQAAEFLSPYISTHLKTICNLLISDTESNELIQKLQNSANNNSDDEDVDDEELDITPLFPIDRNSTILYLNVFHGLCAGANNPKIQTKDSVKEIVLPLFYDLLNAASIESADILCPLLESFITFSLDDWISIGYETELKKITDKTIKAFMDSTIGNSKVDMKYDIFAKFIHHIHHFEKKELQEKFLNQIATLKIHLKKFLQEKMDPNNSRDDYKDLTCSLYELYINKLTILGRDYPIEVDEELLQLFLNNFVSRIPIMFQDFDDSTAQEINFKMLVLLATWNLEKWREIIEKVRDYENSISKDLRSVWKPIAAIIGRLNTLVISLAATNETFENINSLFYLKWSACTSLMDIIVAIKIFELKLPADATTWRYSMSEQFPFYLHDNASKVLLKIFLYLESLFAKQVDVQLERVADEDANLNDLPETGFFENIETEFLLFTVKLKGLMKLNILDERFASRVALNKEKLGPLFKKIVDDTIMENPEPNKKNIQKAKSNQTQREKAPLQPNSERETDHANTENNDPDIPMTIDLEPIEESSQNNSELAPIEEHPTVVDAIDNSDEITQD
For the molecule B1, the values for the FRETR in assay [1], in assay [2] and in assay [3] were 1.35, 1.4 and 1.37, respectively.
